B1: 1D2 (antibody, V domains shown)
VH: QVQLVQSGAEVKKPGSSVKVSCKASGGTFSSYAISWVRQAPGQGLEWMGGIIPIFGTANYAQKFQGRVTITADESTSTAYMELSSLRSEDTAVYYCARDGSGYDSAGMDDWGQGTLVTVSS
VL: QPGLTQPPSASGTPGQTVTISCSGSRSNIGSNYVYWYQQFPGTAPKLLIFSNNQRPSGVPDRFSGSKSGTSASLAISGLRSEDEADYYCAVWDDSLSGVVFGGGTKLTVL
notes: anti-PD-L1 clone; also called Ab 1D2
B2: 1D4 (antibody, V domains shown)
VH: QVQLVQSGGGVVQPGRSLRLSCAASGFTFSSYAIHWVRQAPGKGLEWITTISYDGSNKYYADSVKGRFTISRDNPKNTLYLQMNSLRAEDTAVYYCARGFGGPDYWGQGTLVTVSS
VL: LPVLTQPSSLSASPGASASLTCTLRSGINVGTYRIYWYQQKPGSPPQYLLRYKSDSDKQQGSGVPSRFSGSKDASANAGILLISGLQSEDEADYYCMIWHSSAYVFGTGTKVTVL
notes: anti-PD-L1 clone; also called Ab 1D4
B3: 1G1 (antibody, V domains shown)
VH: EVQLVQSGAEVKKPGSSVRVSCKASGGTFSSYAISWVRQAPGQGLEWMGRIIPILGIANYAQKFQGRVTITADKSTSTAYMELSSLRSEDTAVYYCASGSIVGAAYAFDIWGQGTTVTVSS
VL: QSVLTQPPSVSVAPGKAANLNCGGKNIGGRVVHWYQQRPGQAPVLVIYDDTDRPSGIPERFSGSNSGNTATLTITDVEVGDEADYYCQVWDSRSDHPVFGGGTTLTVL
notes: anti-PD-L1 clone; also called Ab 1G1
B4: 1H5 (antibody, V domains shown)
VH: QVQLVQSGAEVKKPGSSVKVSCKASGGTFSRYALTWVRQAPGQGLEWMGGIIPIFGRANYAQKFQGRVTITADKSTSTAYMELGSLTSDDTAVYYCAEEGAFNSLAIWGQGTMVTVSS
VL: NFMLTQPHSVSGSPGETVTISCTRSSGSIASHFVQWYQQRPGSSPTTVIFGDDQRPSGVPDRISGSIDTSSNSASLSISGLKTEDEADYYCQSYDSSNHVVFGGGTKLTVL
notes: anti-PD-L1 clone; also called Ab 1H5
B5: 1C4 (antibody, V domains shown)
VH: QVQLVQSGAEVKKPGSSVKVSCKASGGTFSRYALTWVRQAPGQGLEWMGGIIPIFGRANYAQKFQGRVTITADKSTSTAYMELGSLTSDDTAVYYCAEEGAFNSLAIWGQGTMVTVSS
VL: NFMLTQPHSVSESPGKTVTISCTRSSGSIASNYVQWYQQRPGSAPTTVIFADNQRPSGVPARFSGSIDSSSNSASLTISGLKTEDEADYYCQSYDSSNHWVFGGGTQLTVL
notes: anti-PD-L1 clone; also called Ab 1C4
B6: 1B4 (antibody, V domains shown)
VH: QVQLVQSGGGLVKPGGSLRLSCVGSDFAFSSAWMNWVRQAPGKGLEWVGRIKSKTDGETTDYAAPVKDRFIISRDDSKNTLYLEMNSLKTEDTGVYYCTTGGLGLVYPYYNYIDVWGEGTTVTVSS
VL: LPVLTQPPSASGTPGQRVTISCSGSSSNIGSNYVYWYQQLPGTAPKLLIYRNNQRPSGVPDRFSGSKSGTSASLAISGLRSEDEADYYCAAWDDSLNGLVFGTGTRVTVL
notes: anti-PD-L1 clone; also called Ab 1B4
B7: 1H2 (antibody, V domains shown)
VH: QVQLVQSGGGLVKPGGSLRLSCAASGFTFSSYSMNWVRQAPGKGLVWISRIISDGSATTYADSVKGRFTISRDNAKNTLYLQMNSLRAEDTGVYYCARDRSEGGFDPWGQGTLVTVSS
VL: SSELTQDPAVSVALGQTVRITCQGDSLRSYYASWYQQKPGQAPVLVIYGKNNRPSGIPDRFSGSTSGNTASLTITGAQAEDEADYYCNSRDISDNQWQWIFGGGTKLAVL
notes: anti-PD-L1 clone; also called Ab 1H2
B8: 1C1 (antibody, V domains shown)
VH: QVQLVQSGAEVKKPGASVKVSCKASGYTFTSYGISWVRQAPGQGLEWMGWTSPHNGLTAFAQILEGRVTMTTDTSTNTAYMELRNLTFDDTAVYFCAKVHPVFSYALDVWGQGTLVTVSS
VL: NFMLTQPHSVSESPGKTVTISCTRSSGSIASNYVQWYQQRPGSSPTTVIYEDNQRPSGVPDRFSGSIDTSSNSASLTISGLKTKDEADYYCQSYDGITVIFGGGTKLTVL
notes: anti-PD-L1 clone; also called Ab 1C1
B9: 1A6 (antibody, V domains shown)
VH: QVQLVQSGGEVKKPGASVKVSCKASGYTLSSHGITWVRQAPGQGLEWMGWISAHNGHASNAQKVEDRVTMTTDTSTNTAYMELRSLTADDTAVYYCARVHAALYYGMDVWGQGTLVTVSS
VL: QSVLTQPPSVSVAPGQTARITCGGNNIGSKGVHWYQQKPGQAPVLVVYDDSDRPSGIPERFSGSNSGNTATLTISRVEAGDEADYYCQVWDSSSDHWVFGGGTKLTVL
notes: anti-PD-L1 clone; also called Ab 1A6
B10: 1D1 (antibody, V domains shown)
VH: QVQLVQSGAEVKKPGASVKVSCKASGYTFTSYGISWVRQAPGQGLEWMGWISAYNGHASNAQKVEDRVTMTTDTSTNTAYMELRNLTTDDTAVYYCARVHAALYYGMDVWGQGTTVTVSS
VL: SYELTQPPSVSVAPGQTARITCGGDNIGSKGVHWYQQTPGQAPVLVVYDDSDRPSGIPERFSGSKSGNTATLTISRVEAGDEADYYCQVWDSRSDHWVFGGGTRVTVL
notes: anti-PD-L1 clone; also called Ab 1D1
B11: 1E1. (antibody, V domains shown)
VH: QVQLVQSGVEMKKPGASVRVSCKGSGYTFSSYGISWVRQAPGQGLEWMGWISAHNGHASNAQKLEDRVTMTTDTSTNTAYMELRSLTSDDTAVYYCARVHGALYYGMDVWGQGTTVTVSS
VL: SYELTQPPSVSVAPGQTARIPCGANNIGGKSVHWYQQKPGQAPVLVVYDDRDRPSGIPERFSGSNSGNTATLTISRVEAGDEADYYCQVWDSSSDHWVFGGGTKLTVL
notes: anti-PD-L1 clone; also called Ab 1E1
B12: 14C61 (antibody, V domains shown)
VH: EVQLVQSGGEVKKPGASVKVSCKASGYTLSSHGITWVRQAPGQGLEWMGWISAHNGHASNAQKVEDRVTMTTDTSTNTAYMELRSLTPDDTAVYYCARVHAALYYGMDVWGQGTLVTVSS
VL: SYELTQPPSVSVAPRQTAKITCTRDNIESRSVNWYQQRAGQAPAVIVYDDTERPSGITVRYSGSNSGNTATLTISRVEAGDEADYYCQVWDSSGDLWVFGGGTKLTVL
notes: anti-PD-L1 clone; also called Ab 14C61
B13: 1F1 (antibody, V domains shown)
VH: QVQLVQSGGEVKKPGASVKVSCKASGYTLSSHGITWVRQAPGQGLEWMGWISAHNGHASNAQKVEDRVTMTTDTSTNTAYMELRSLTPDDTAVYYCARVHAALYYGMDVWGQGTLVTVSS
VL: QPVLTQPPSVSVAPGQTARITCGGDNIGSKGVHWLQQKPGQAPVLVVYDDRDRPSGIPERFSGSNSGSTATLTISRVEAGDEADYYCQVWDSSSDHWVFGGGTKLTVL
notes: anti-PD-L1 clone; also called Ab 1F1
B14: 1C6 (antibody, V domains shown)
VH: QVQLVQSGGEVKKPGASVKVSCKASGYTLSSHGITWVRQAPGQGLEWMGWISAHNGHASNAQKVEDRVTMTTDTSTNTAYMELRSLTPDDTAVYYCARVHAALYYGMDVWGQGTLVTVSS
VL: LPVLTQPPSVSVAPGQTARITCGGNNIGSKSVHWYQQKPGQAPVLVVYDDSDRPSGIPERFSGSNSGNTATLTINRVEAGDEADYYCQVWDSSSDHWVFGGGTKLTVL
notes: anti-PD-L1 clone; also called Ab 1C6
B15: 1A3 (antibody, V domains shown)
VH: EVQLVQSGAEVKKPGASVKVSCKASGYTLSSHGITWVRQAPGQGLEWMGWISAHNGHASNAQKVEDRVTMTTDTSTNTAYMELRSLTPDDTAVYYCARVHAALYYGMDVWGQGTLVTVSS
VL: LPVLTQPPSVSVAPGQTARITCGGNNIGSKSVHWYQQKPGQAPVLVVYDDSDRPSGIPERFSGSNSGNTATLTISRVEAGDEADYYCQVWDSSSDHWVFGGGTKLTVL
notes: anti-PD-L1 clone; also called Ab 1A3
B16: 1A2 (antibody, V domains shown)
VH: QVQLVQSGGEVKKPGASVKVSCKASGYTLSSHGITWVRQAPGQGLEWMGWISAHNGHASNAQKVEDRVTMTTDTSTNTAYMELRSLTADDTAVYYCARVHAALYYGMDVWGQGTTVTVSS
VL: QSVLTQPPSVSVAPGQTARITCGGNNIGSKGVHWYQQKPGQAPVLVVYDDSDRPSGIPERFSGSNSGNTATLTISRVEAGDEADYYCQVWDSSSDHWVFGGGTKLTVL
notes: anti-PD-L1 clone; also called Ab 1A2

Each binder was assayed against T1, PD-L1 (on 293T cells stably expressing PD-L1) (human, UniProt Q9NZQ7) (assay: flow cytometry on 293T cells stably expressing PD-L1, percent of cells labelled, anti-hFc secondary).
T1 construct: expressed on the surface of stably transfected 293T cells; also called CD274; B7-H1
T1 sequence (Q9NZQ7 19-290 limits assumed): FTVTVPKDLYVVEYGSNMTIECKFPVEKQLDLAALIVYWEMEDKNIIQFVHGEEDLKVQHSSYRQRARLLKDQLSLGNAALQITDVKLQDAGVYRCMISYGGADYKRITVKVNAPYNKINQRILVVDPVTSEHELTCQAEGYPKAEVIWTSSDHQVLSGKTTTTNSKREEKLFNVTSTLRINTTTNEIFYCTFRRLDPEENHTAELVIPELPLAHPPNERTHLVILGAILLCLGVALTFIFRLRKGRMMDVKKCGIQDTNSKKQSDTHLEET
For B1, the “EC50 (read off the curve)” value was about 100 pM. For B2, the “EC50 (read off the curve)” value was 200 to 300 pM. For B3, the “EC50 (read off the curve)” value was about 50 pM.

Each binder was assayed against PD-L1 (antigen of the kinetic measurements) (human, UniProt Q9NZQ7) (assay: kinetic measurements for aPDL1 antibodies; instrument and antigen format not stated).
Chain of PD-L1 (antigen of the kinetic measurements) (Q9NZQ7 19-238 limits assumed): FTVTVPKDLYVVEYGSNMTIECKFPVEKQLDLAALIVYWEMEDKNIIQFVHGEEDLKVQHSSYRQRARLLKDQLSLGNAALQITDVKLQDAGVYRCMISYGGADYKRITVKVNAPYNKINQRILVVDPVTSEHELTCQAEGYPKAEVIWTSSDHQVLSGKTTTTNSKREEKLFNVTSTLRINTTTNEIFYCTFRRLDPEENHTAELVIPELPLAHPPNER
In the case of B4, the Kd is reported as 287 pM, the koff is reported as 0.000367 s⁻¹ and the kon is reported as 1.28e+06 M⁻¹ s⁻¹. Work on B5 yielded a Kd of 1160 pM. For B1, the Kd was 989 pM, the koff was 0.00133 s⁻¹ and the kon was 1.35e+06 M⁻¹ s⁻¹. Work on B6 yielded a Kd of 669 pM, a koff of 0.00124 s⁻¹ and a kon of 1.85e+06 M⁻¹ s⁻¹. Binder B7 has a Kd of 1570 pM. B2 was tested, and the Kd was 1030 pM. B8 gave a Kd of 1230 pM, a koff of 0.000987 s⁻¹ and a kon of 802000 M⁻¹ s⁻¹. With B3 the Kd was 878 pM. B9 gave a Kd of 913000 pM, a koff of 0.0113 s⁻¹ and a kon of 12400 M⁻¹ s⁻¹. Work on B10 yielded a Kd of 609 pM, a koff of 0.000745 s⁻¹ and a kon of 1.22e+06 M⁻¹ s⁻¹. Binder B11 has a Kd of 8980 pM, a koff of 0.00884 s⁻¹ and a kon of 984000 M⁻¹ s⁻¹. In the case of B12, the Kd is reported as 1910 pM. In the case of B13, the Kd is reported as 461 pM, the koff is reported as 0.000338 s⁻¹ and the kon is reported as 733000 M⁻¹ s⁻¹. With B14 the Kd was 41600 pM, the koff was 0.01 s⁻¹ and the kon was 241000 M⁻¹ s⁻¹. In the case of B15, the Kd is reported as 873000 pM, the koff is reported as 0.0115 s⁻¹ and the kon is reported as 13100 M⁻¹ s⁻¹. With B16 the Kd was 679 pM.
